From the NTF2 design screens of Basanta et al. (2020) come the findings set out here.

The data set can be described thus: protease stability score; higher = more stable; yeast display proteolysis, trypsin and chymotrypsin.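 Further: relative to predicted unfolded state with 0 unfolded-like and 1 meaning tenfold more protease.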
For “SEEEEQSRIAIELVKEVHDTGDEHLLKRLMDPNAKVDIGDKTHHGREIFSHLVHRWFHTLGVDHVKIHDLDFQGDFMIIHMVEVIGDKHVHVHIYTLKVNGRWYIRHLRVERR”, the protease stability score is 0.967. The sequence “SEEEEQSRKIFRLLYKVIETGDEDIFTKLFDPHARLIYNGKEYIGWEEAVQVLRHIRIDREELSVVRINNVNGQVHIHSVSRMDGEINGVEHHTRVELNFIVIKINGRWVIHTWEIRID” came in with a protease stability score of 2.35. “SEEEEQVERAIKLTEELIDTGNWKEISKLADPNARLNVNGREFHGREMVSENIKRFFEELGVDHIEVKHIRIQGNKVEVDTELRVGDKYHDLHLLFLKVNGQWLLKEVTVR” registered a protease stability score of 1.22. To “SEEEEQVERFLRLWLHALRTGDEDTHERLMDPNTRIQIGNFIFHGRERALKVVHHLIRQIDHIHDFDIHDVRVQGNKVHVDVRLNTHFDGRTIVLNLHIHIHKVDGRWLFTSLSRE” belongs 1.23; to “SEEEEQVKEFIERWITMVKTGDEDFARKMADPNVRIEIGDKILHGRENMEHYMRRVIDEWRITHIHVNDSKVYGEYIVNEVHIHVRQGDKHHTINWELHVKKVNGRWRLQNVHFG”, 2.24. The sequence “SEEEEQVKELIKWLIEVWLTGNEEFIRDLADPHVRMHIEQGDKKVDSHGRETLLKDLERYRREIRFEYIEIHDIRIYNGRAEVDGRLFGLINGQRMELNVILIFVVVDGKIREIAVHIR” showed a protease stability score of 0.26.

“SEEEEQVTESFEHFFRARYTGDEHTLLRMMDPNVRVIVDGKDIHGWEEVIRYLVHIRIKRSELHDREIRVVNGRAIVHLDVHTDREVDGVRIETRIILILYAEKIDGRWVFKEVKIEVR”: the protease stability score came to 1.29. Consider “SEEEERAEELVRLWEHDLKTGNEHLLRELMDPNTRLVVNGRHTHGREHAVNILLQFVEEWRIESVHLHRWRVIGDKIDLDIHIHGRINGVEHHIKSILVLVKINGKWLIHTIVIH”, for which the protease stability score worked out at 1.02. To “SEEEERLRENLERWHRALYTGDEEHLFNLADPHARFEIIVDGRDVRIHGRENYLRWVEEFRKELGISRVHTELKSEHVINGRNDEDGLVHINGRSLRVHFHLDVVDGRTKKIHIYVR” belongs 0.779; to “SEEEERLRRFFEEFIKWHVTGDEEHLERLMDPNAKFIVNGVESHGWENTSRHLKELRIHELNIRRVEIVNGRIHISGLAKGEFNGRHRETTVHIHIVVIDGRVKEMSIEVR”, 2.48. For the sequence “SEEEERLRTIAEVLLHLLLTGDEEHLERLMDPHARYEQGDKHAIGREEVSHLFRRLLEHMRTREIHLHRWHSVNGVIYLDTRVIMEVNGRRIDTDTKVVVVVVDGKVRSMRNQFN”, the protease stability score amounted to 0.113. Next, “SEEEERMETLTRLLDHAWHTGDFDFLSKLLDPNTRVVQGEFHHHGRHALRKILHDLNRIMGVDHSDIEDREIQGDKIHIHVRIEVNGRVVDSHINIIVVDGRIKTVEMTIR”: -0.216; “SEEEERSERSLKHLLKTELTGNEEEFWRLADPNAKIEVIIDGVRISDHGREAIIRLWRFMGFDHLIFRHIHVHIQGDKMDVHIQGESRIGDKEMRTTIFLHVIKINGRWINHTLIIEQK”: 1.24; “SEEEESAKIAIKVMLHSLHTGDEHTMSRLMDPNAREIINGRHNHGREVILEFLRRLGFTKVEIKDFRLTHMSVQGEFVFVHGTTNGEFNGVDTNVDLEIVVLKVDGRWTIQSVFYR”: 1.67. Take “SEEEESAKWFNHVRHEAERTGDEETLLRLLDPSVKSTYGDKTSHGRHEMEEIMKRLGVSRVHLDIRHVEVQGDKVNVDGLVEFDGQEMRVILIVLKIDGRWIAEHVIVH”: the protease stability score was -0.118.

With “SEEEESARRAWEKILHVLETGDERDSRRLMDPDTKIEQGDKTEHGMEKIAKMITEWRFHDVKLTDMRVIGDKVEIDGTVRGEFDGREYKIHVFILVVKINGRWVIHKTVLG”, the protease stability score amounted to 1.06. Next, “SEEEESERKVLHKFTEAIRTGDEHTLENLIDPNVKIDAENRSHHGMEDWLKWLMELRRRADHIDFRIHSIHTQGDKLHVHSEIIVVQGDKHIHIEISMIINKVNGRWHIHHIELR”: 1.29; “SEEEESIHEAQKVFLKIIMTGDWEEIARRLDPDVRLHIGNKKVHGREEAIEFFRKFLEEIRIHDEELKEFSSIDGRVHIRGEIDGTINGVRDRVEVHNVIWKFNGRWFISFREER”: 1.36; “SEEEESIRHSWEIFETVLKTGDWTDYEKLFDPNDRTEIGDKRLHGMDLLIHILRRLGIKHNHAEMRIRSFEMIGDKAIIDGEIHVVLDFNGREVRSSSEILIIDRKINGRWLVESMHVI”: 1.21. Next, “SEEEESSEDATKLILRLWKTGDEHEWEHLFDPNVKVHIGDKHYVGMEIAVNTLHMLLRELGIDHIRLRDVKIFNGKVIIVFKIEVNGREFETHIISEKVNGRWRIKSVRFE”: 1.39. For “SEEEESSERATKILRELLKTGNFRLLLELMDPNARLHTHINGVNIHDHGRNLARWLVERIKNAVIKINDEEVRIFNGRVEVDIDGELLINGRNFRVHEHWIFRKIDGKWFFEEVEIRVE”, the protease stability score turned out to be 2.16.

In the case of “SEEEESSHNAIKIWMETMETGNEELYLRLLDPHTRLDVNGKEFIGREVLKMFKKQIDHVKDVDVEHVEVQGDKVILNGRVRGDINGVERNTIEHLIVRKIDGRWRITEFSIR”, the protease stability score worked out at 0.94.

Sequence “SEEEESSKYAIELLRKVVETGDWRLIQRLADPHAKIEQGDKRLHGRETVTKHLIELGIDHIKFRDSRVQGDKVELDGEVDVNGQHRDTHILIEKIDGVWVWRRFEIK” showed a protease stability score of 0.97. Next, “SEEEESTHVWSRLFSHAIETGDEDLLERLIDPHVKLIVDGRELHGREELLTWIRRLFRHLGIDHMEVRIKNFDIINGRIRVEDELLLIVNGKEIRLETKVTVEKFDGKWHNQEVKIE”: 0.776. To “SEEEESWRRIAEEELRIRKTGDEDRFRELHDPSVKIDWNGQIIVGWEELHEILRHIAERYPNLRFEVTHSDVIDGRVHIDGRLNVNGVTLEFHIESVIVNGRTKSIRIEVR” belongs 0.524; to “SEEEETAYKVMEEVISAWLTGDEDLFNELADPDVRFELEFNGKKIDIIGRELVSKYWRDVIDHIRVEVVLRDYRMIDGRIETETEIYVEVGDKSHSVETRLHMEVIDGRLRTVKIKVR”, 2.22; to “SEEEETIRRVAEVLVHSILTGDEHFEENYLDPNARIDVNGKHFIGRERYLEAIRDLNEHLGWELKDVKLREVNVQGDKMHLKMEIKRHVNGKDLFIDMHVNVWKVNGKWLIRSLRYS”, 1.44. “SEEEETLEELTRRLLHTWVTGDEQTLKDLADPDVRLIFNGQTYHGREQAERIIKELLDKLGVDRVHSEPRRFNIINGRIRMHVRIHYGDKEYIVHIIATKIDGRWTIKNVIFD” gave a protease stability score of 1.24. To “SEEEETLKRLAHHMYESYITGDERVIKHLVDPNARSRIGEFDDHGREATEELIRRIDHVHHIDIRDMKIQGNWLHLHVRVDGVVDGKRTEHDMEIIVLKVDGKWIVHSMIQR” belongs 1.05. Next, “SEEEETLRDALELVREVLETGDPHLSERLFDPDVRVIYGDKHYHGREYASEMIRFMGVKHFHIKSVRDVDGQVDIDTETHFNGKKYRMHLQTKKIDGKWHLRIIEFR”: 1.39; “SEEEEVAWEAVEILSTFILTGDFESLNKLFDPHVRVRIGDKELHGRETTNKIFRKEREEHGIEIRHIHVHDVHVINGRIHADVEHKIRINGKEDSRRVEWIIEKYNGRWIVREIRVH”: 1.35; “SEEEEVIDEAIHILEKHMQTGDWRVLRELADPNMRVHVNGRDLHGREQYIRWIEFLLKRVPNLKLDHFVLDHQHVVNGVAHLEGRLTYTINGVIHKTRTHFHIFKFDGQWRLESQSER”: 0.951. Sequence “SEEEEVLRHLSKTFTRAMLTGDWKFLFEFADPHVRNDVGDWTRIGMHSMIELLELLHRELRITHLHIDEVRVIGNKAEWEGRNNVRINGQEDKRDVRLELEIVDGKMSLVNVEFK” had a protease stability score of 0.364. In the case of “SEEEEVMERFVELLIKLLITGDEEVLEHLMDPNVRIQIGDKVYHGREVARDLWRRYHRHWRIHDTEVKHHHVQGEFIEIHISIDGEIDGRREEERIIFFVVKINGRWLLHDIHFN”, the protease stability score came out at 2.51.
